Test results from PMC3140584, “Structure–function relationships of the competence lipoprotein ComL and SSB in meningococcal transformation”.

B1: HH10 ssDNA without DUS (ssDNA)
DNA: AACAACAACAAAAGGCCTGTCATCCAACTTCCGGACAGTAAACAACAACAAC
B2: HH10/HH11 dsDNA without DUS (dsDNA)
DNA 1: B1 DNA
DNA 2: GTTGTTGTTGTTTACTGTCCGGAAGTTGGATGACAGGCCTTTTGTTGTTGTT

Biological target: T1, ComL (Neisseria meningitidis MC58, UniProt Q9K0B1 17-267)
T1 sequence: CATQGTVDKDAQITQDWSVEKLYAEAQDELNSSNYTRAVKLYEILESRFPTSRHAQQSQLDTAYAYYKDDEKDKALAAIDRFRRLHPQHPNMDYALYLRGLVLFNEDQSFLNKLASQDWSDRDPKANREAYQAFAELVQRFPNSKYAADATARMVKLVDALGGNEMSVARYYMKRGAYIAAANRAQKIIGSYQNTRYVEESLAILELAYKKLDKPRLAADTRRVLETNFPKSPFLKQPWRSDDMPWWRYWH
Test: EMSA; 5 mM Mg2+; EMSA: 4.5 fmol DNA in 10 µl; 10% glycerol, 5 mM MgCl2, 0.02 mg/ml BSA, 1 mM DTT, with half volume of protein in 50 mM NaH2PO4, 300 mM NaCl, pH 8.0, 0.1% DDM (final about 25 mM phosphate, 150 mM NaCl, 0.05% DDM); 37 °C, 15 min; 6% PAGE Tris/glycine/EDTA
Details: protein: recombinant, tags: C-terminal 6xHis, label: 5'-32P

Binder	apparent K (half saturation)	apparent K (half saturation) (blunt)
B1	926 nM	
B2		467 nM
